Tests used:
HeLa Kyoto [1] = assay: thermal stability score vs G1/S (z-score of summed log2 fold changes over temperatures); higher = more thermally stable than in G1/S
HeLa Kyoto [2] = assay: solubility change mitosis vs G1/S (difference of NP-40 vs SDS log2 ratios) (log2 ratio difference); higher = more soluble in mitosis
HeLa Kyoto [3] = assay: solubility in G1/S (NP-40 vs SDS abundance) (log2 ratio); higher = more soluble; conditions: cell cycle stage: G1/S
HeLa Kyoto [4] = assay: melting temperature (median over replicates), in situ; higher = more thermally stable
[5] = cell cycle stage: early G1 (4.5 h after nocodazole release)
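Wherever melting temperature (median over replicates), in situ is given: HeLa Kyoto cells synchronized by double thymidine or nocodazole block, proteins quantified by TMT10plex mass spectrometry, three independent biological replicates.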
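Wherever solubility change mitosis vs G1/S (difference of NP-40 vs SDS log2 ratios) is given: synchronized HeLa Kyoto cells (double thymidine block for G1/S, nocodazole release for mitosis), protein amounts in NP-40 versus SDS lysates quantified by mass spectrometry, three biological replicates.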
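Wherever solubility in G1/S (NP-40 vs SDS abundance) is given: HeLa Kyoto cells arrested at G1/S by double thymidine block, proteins quantified by TMT10plex mass spectrometry in mild NP-40 versus SDS extracts, three biological replicates.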
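Wherever thermal stability score vs G1/S (z-score of summed log2 fold changes over temperatures) is given: synchronized HeLa Kyoto cells, proteins quantified by TMT10plex mass spectrometry, three biological replicates, mitosis taken 0.5 h after nocodazole release, G1/S directly after double thymidine block.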

| Sequence | thermal stability score (HeLa Kyoto [1]; [5]) | thermal stability score (HeLa Kyoto [1]; cell cycle stage: mitosis) | solubility change mitosis (log2) (HeLa Kyoto [2]) | solubility in G1/S (log2) (HeLa Kyoto [3]) | melting temperature (HeLa Kyoto [4]; cell cycle stage: G1/S) | melting temperature (HeLa Kyoto [4]; cell cycle stage: mitosis) |
| --- | --- | --- | --- | --- | --- | --- |
| MADLDSPPKLSGVQQPSEGVGGGRCSEISAELIRSLTELQELEAVYERLCGEEKVVERELDALLEQQNTIESKMVTLHRMGPNLQLIEGDAKQLAGMITFTCNLAENVSSKVRQLDLAKNRLYQAIQRADDILDLKFCMDGVQTALRSEDYEQAAAHTHRYLCLDKSVIELSRQGKEGSMIDANLKLLQEAEQRLKAIVAEKFAIATKEGDLPQVERFFKIFPLLGLHEEGLRKFSEYLCKQVASKAEENLLMVLGTDMSDRRAAVIFADTLTLLFEGIARIVETHQPIVETYYGPGRLYTLIKYLQVECDRQVEKVVDKFIKQRDYHQQFRHVQNNLMRNSTTEKIEPRELDPILTEVTLMNARSELYLRFLKKRISSDFEVGDSMASEEVKQEHQKCLDKLLNNCLLSCTMQELIGLYVTMEEYFMRETVNKAVALDTYEKGQLTSSMVDDVFYIVKKCIGRALSSSSIDCLCAMINLATTELESDFRDVLCNKLRMGFPATTFQDIQRGVTSAVNIMHSSLQQGKFDTKGIESTDEAKMSFLVTLNNVEVCSENISTLKKTLESDCTKLFSQGIGGEQAQAKFDSCLSDLAAVSNKFRDLLQEGLTELNSTAIKPQVQPWINSFFSVSHNIEEEEFNDYEANDPWVQQFILNLEQQMAEFKASLSPVIYDSLTGLMTSLVAVELEKVVLKSTFNRLGGLQFDKELRSLIAYLTTVTTWTIRDKFARLSQMATILNLERVTEILDYWGPNSGPLTWRLTPAEVRQVLALRIDFRSEDIKRLRL [COG4] | 0.91 | 1.79 | -0.175 | -0.0589 | 48.7 °C | 49.6 °C |
| MADLEAVLADVSYLMAMEKSKATPAARASKKILLPEPSIRSVMQKYLEDRGEVTFEKIFSQKLGYLLFRDFCLNHLEEARPLVEFYEEIKKYEKLETEEERVARSREIFDSYIMKELLACSHPFSKSATEHVQGHLGKKQVPPDLFQPYIEEICQNLRGDVFQKFIESDKFTRFCQWKNVELNIHLTMNDFSVHRIIGRGGFGEVYGCRKADTGKMYAMKCLDKKRIKMKQGETLALNERIMLSLVSTGDCPFIVCMSYAFHTPDKLSFILDLMNGGDLHYHLSQHGVFSEADMRFYAAEIILGLEHMHNRFVVYRDLKPANILLDEHGHVRISDLGLACDFSKKKPHASVGTHGYMAPEVLQKGVAYDSSADWFSLGCMLFKLLRGHSPFRQHKTKDKHEIDRMTLTMAVELPDSFSPELRSLLEGLLQRDVNRRLGCLGRGAQEVKESPFFRSLDWQMVFLQKYPPPLIPPRGEVNAADAFDIGSFDEEDTKGIKLLDSDQELYRNFPLTISERWQQEVAETVFDTINAETDRLEARKKAKNKQLGHEEDYALGKDCIMHGYMSKMGNPFLTQWQRRYFYLFPNRLEWRGEGEAPQSLLTMEEIQSVEETQIKERKCLLLKIRGGKQFILQCDSDPELVQWKKELRDAYREAQQLVQRVPKMKNKPRSPVVELSKVPLVQRGSANGL [ADRBK1] | 1.35 | 0.436 | -0.0655 | -0.107 | 51.6 °C | 51.4 °C |
| MADLSLLQEDLQEDADGFGVDDYSSESDVIIIPSALDFVSQDEMLTPLGRLDKYAASENIFNRQMVARSLLDTLREVCDDERDCIAVLERISRLADDSEPTVRAELMEQVPHIALFCQENRPSIPYAFSKFLLPIVVRYLADQNNQVRKTSQAALLALLEQELIERFDVETKVCPVLIELTAPDSNDDVKTEAVAIMCKMAPMVGKDITERLILPRFCEMCCDCRMFHVRKVCAANFGDICSVVGQQATEEMLLPRFFQLCSDNVWGVRKACAECFMAVSCATCQEIRRTKLSALFINLISDPSRWVRQAAFQSLGPFISTFANPSSSGQYFKEESKSSEEMSVENKNRTRDQEAPEDVQVRPEDTPSDLSVSNSSVILENTMEDHAAEASGKPLGEISVPLDSSLLCTLSSESHQEAASNENDKKPGNYKSMLRPEVGTTSQDSALLDQELYNSFHFWRTPLPEIDLDIELEQNSGGKPSPEGPEEESEGPVPSSPNITMATRKELEEMIENLEPHIDDPDVKAQVEVLSAALRASSLDAHEETISIEKRSDLQDELDINELPNCKINQEDSVPLISDAVENMDSTLHYIHSDSDLSNNSSFSPDEERRTKVQDVVPQALLDQYLSMTDPSRAQTVDTEIAKHCAYSLPGVALTLGRQNWHCLRETYETLASDMQWKVRRTLAFSIHELAVILGDQLTAADLVPIFNGFLKDLDEVRIGVLKHLHDFLKLLHIDKRREYLYQLQEFLVTDNSRNWRFRAELAEQLILLLELYSPRDVYDYLRPIALNLCADKVSSVRWISYKLVSEMVKKLHAATPPTFGVDLINELVENFGRCPKWSGRQAFVFVCQTVIEDDCLPMDQFAVHLMPHLLTLANDRVPNVRVLLAKTLRQTLLEKDYFLASASCHQEAVEQTIMALQMDRDSDVKYFASIHPASTKISEDAMSTASSTY [PPP4R1] | -0.471 | -0.62 | -0.155 | -0.0857 | 51.6 °C | 50.8 °C |
| MADPDVLTEVPAALKRLAKYVIRGFYGIEHALALDILIRNSCVKEEDMLELLKFDRKQLRSVLNNLKGDKFIKCRMRVETAADGKTTRHNYYFINYRTLVNVVKYKLDHMRRRIETDERDSTNRASFKCPVCSSTFTDLEANQLFDPMTGTFRCTFCHTEVEEDESAMPKKDARTLLARFNEQIEPIYALLRETEDVNLAYEILEPEPTEIPALKQSKDHAATTAGAASLAGGHHREAWATKGPSYEDLYTQNVVINMDDQEDLHRASLEGKSAKERPIWLRESTVQGAYGSEDMKEGGIDMDAFQEREEGHAGPDDNEEVMRALLIHEKKTSSAMAGSVGAAAPVTAANGSDSESETSESDDDSPPRPAAVAVHKREEDEEEDDEFEEVADDPIVMVAGRPFSYSEVSQRPELVAQMTPEEKEAYIAMGQRMFEDLFE [GTF2E1] | 2.94 | 5.05 | -0.0795 | -0.111 | 48.4 °C | 49.4 °C |
| MADQPKPISPLKNLLAGGFGGVCLVFVGHPLDTVKVRLQTQPPSLPGQPPMYSGTFDCFRKTLFREGITGLYRGMAAPIIGVTPMFAVCFFGFGLGKKLQQKHPEDVLSYPQLFAAGMLSGVFTTGIMTPGERIKCLLQIQASSGESKYTGTLDCAKKLYQEFGIRGIYKGTVLTLMRDVPASGMYFMTYEWLKNIFTPEGKRVSELSAPRILVAGGIAGIFNWAVAIPPDVLKSRFQTAPPGKYPNGFRDVLRELIRDEGVTSLYKGFNAVMIRAFPANAACFLGFEVAMKFLNWATPNL [SLC25A20] | -1.89 | -0.401 | -0.108 | -0.0167 | 58 °C | 56.7 °C |
| MADRDSGSEQGGAALGSGGSLGHPGSGSGSGGGGGGGGGGGGSGGGGGGAPGGLQHETQELASKRVDIQNKRFYLDVKQNAKGRFLKIAEVGAGGNKSRLTLSMSVAVEFRDYLGDFIEHYAQLGPSQPPDLAQAQDEPRRALKSEFLVRENRKYYMDLKENQRGRFLRIRQTVNRGPGLGSTQGQTIALPAQGLIEFRDALAKLIDDYGVEEEPAELPEGTSLTVDNKRFFFDVGSNKYGVFMRVSEVKPTYRNSITVPYKVWAKFGHTFCKYSEEMKKIQEKQREKRAACEQLHQQQQQQQEETAAATLLLQGEEEGEED [PURA] | -2.25 | -4.83 | 0.112 | 0.415 | 58 °C | 56.5 °C |
| MADREGGCAAGRGRELEPELEPGPGPGSALEPGEEFEIVDRSQLPGPGDLRSATRPRAAEGWSAPILTLARRATGNLSASCGSALRAAAGLGGGDSGDGTARAASKCQMMEERANLMHMMKLSIKVLLQSALSLGRSLDADHAPLQQFFVVMEHCLKHGLKVKKSFIGQNKSFFGPLELVEKLCPEASDIATSVRNLPELKTAVGRGRAWLYLALMQKKLADYLKVLIDNKHLLSEFYEPEALMMEEEGMVIVGLLVGLNVLDANLCLKGEDLDSQVGVIDFSLYLKDVQDLDGGKEHERITDVLDQKNYVEELNRHLSCTVGDLQTKIDGLEKTNSKLQEELSAATDRICSLQEEQQQLREQNELIRERSEKSVEITKQDTKVELETYKQTRQGLDEMYSDVWKQLKEEKKVRLELEKELELQIGMKTEMEIAMKLLEKDTHEKQDTLVALRQQLEEVKAINLQMFHKAQNAESSLQQKNEAITSFEGKTNQVMSSMKQMEERLQHSERARQGAEERSHKLQQELGGRIGALQLQLSQLHEQCSSLEKELKSEKEQRQALQRELQHEKDTSSLLRMELQQVEGLKKELRELQDEKAELQKICEEQEQALQEMGLHLSQSKLKMEDIKEVNQALKGHAWLKDDEATHCRQCEKEFSISRRKHHCRNCGHIFCNTCSSNELALPSYPKPVRVCDSCHTLLLQRCSSTAS [RUFY1] | 0.538 | 1.01 | -0.0933 | 0.163 | 49.5 °C | 49.8 °C |
| MADSELQLVEQRIRSFPDFPTPGVVFRDISPVLKDPASFRAAIGLLARHLKATHGGRIDYIAGLDSRGFLFGPSLAQELGLGCVLIRKRGKLPGPTLWASYSLEYGKAELEIQKDALEPGQRVVVVDDLLATGGTMNAACELLGRLQAEVLECVSLVELTSLKGREKLAPVPFFSLLQYE [APRT] | 3.79 | 2.38 | -0.0341 | 0.361 | 57.1 °C | 55.8 °C |
| MAEAALLLLPEAAAERDAREKLALWDRRPDTTAPLTDRQTDSVLELKAAAENLPVPAELPIEDLCSLTSQSLPIELTSVVPESTEDILLKGFTSLGMEEERIETAQQFFSWFAKLQTQMDQDEGTKYRQMRDYLSGFQEQCDAILNDVNSALQHLESLQKQYLFVSNKTGTLHEACEQLLKEQSELVDLAENIQQKLSYFNELETINTKLNSPTLSVNSDGFIPMLAKLDDCITYISSHPNFKDYPIYLLKFKQCLSKALHLMKTYTVNTLQTLTSQLLKRDPSSVPNADNAFTLFYVKFRAAAPKVRTLIEQIELRSEKIPEYQQLLNDIHQCYLDQRELLLGPSIACTVAELTSQNNRDHCALVRSGCAFMVHVCQDEHQLYNEFFTKPTSKLDELLEKLCVSLYDVFRPLIIHVIHLETLSELCGILKNEVLEDHVQNNAEQLGAFAAGVKQMLEDVQERLVYRTHIYIQTDITGYKPAPGDLAYPDKLVMMEQIAQSLKDEQKKVPSEASFSDVHLEEGESNSLTKSGSTESLNPRPQTTISPADLHGMWYPTVRRTLVCLSKLYRCIDRAVFQGLSQEALSACIQSLLGASESISKNKTQIDGQLFLIKHLLILREQIAPFHTEFTIKEISLDLKKTRDAAFKILNPMTVPRFFRLNSNNALIEFLLEGTPEIREHYLDSKKDVDRHLKSACEQFIQQQTKLFVEQLEEFMTKVSALKTMASQGGPKYTLSQQPWAQPAKVNDLAATAYKTIKTKLPVTLRSMSLYLSNKDTEFILFKPVRNNIQQVFQKFHALLKEEFSPEDIQIIACPSMEQLSLLLLVSK [COG3] | 0.629 | 1.07 | -0.0733 | 0.235 | 50.9 °C | 49.7 °C |
| MAEEQGRERDSVPKPSVLFLHPDLGVGGAERLVLDAALALQARGCSVKIWTAHYDPGHCFAESRELPVRCAGDWLPRGLGWGGRGAAVCAYVRMVFLALYVLFLADEEFDVVVCDQVSACIPVFRLARRRKKILFYCHFPDLLLTKRDSFLKRLYRAPIDWIEEYTTGMADCILVNSQFTAAVFKETFKSLSHIDPDVLYPSLNVTSFDSVVPEKLDDLVPKGKKFLLLSINRYERKKNLTLALEALVQLRGRLTSQDWERVHLIVAGGYDERVLENVEHYQELKKMVQQSDLGQYVTFLRSFSDKQKISLLHSCTCVLYTPSNEHFGIVPLEAMYMQCPVIAVNSGGPLESIDHSVTGFLCEPDPVHFSEAIEKFIREPSLKATMGLAGRARVKEKFSPEAFTEQLYRYVTKLLV [ALG2] | 0.227 | 0.342 | -0.229 | -0.0813 | 51 °C | 51.3 °C |
